Our source for the Kd values is publication PMC3142331 (2011).

For the experiment, the target named is T1, RNA polymerase II CTD tetraheptad CTD (UniProt P24928, CTD Ser5 phosphorylation).
T1 chain: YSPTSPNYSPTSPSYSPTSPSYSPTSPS
The experiment can be described thus: guanylyltransferase stimulation assay.

B1: Mce (protein)
chain: not shown
B1: the affinity, expressed as Kd, was 1500 nM.
